In assay [1] the target is SARS-CoV-2 spike (S) protein (SARS-CoV-2) (UniProt P0DTC2). The assay can be described thus: cell-based or functional assay.
Assay [2] deals with ACE2_Fc (microarray spots) (UniProt Q9BYF1). The assay can be described thus: CDI SARS-CoV-2 protein microarray, sample [..]00347 1 ug/mL, positive-control spot ACE2_Fc_0.17 read by the anti-human IgG secondary, replicate 1.
Assay [3] shares this target. The assay can be described thus: CDI SARS-CoV-2 protein microarray, sample [..]00316 1 ug/mL, positive-control spot ACE2_Fc_0.5 read by the anti-human IgG secondary, replicate 1.
Assay [4] has as its target Human IgG (microarray spot). The assay can be described thus: CDI SARS-CoV-2 protein microarray, sample [..]00316 1 ug/mL, positive-control spot Human IgG read by the anti-human IgG secondary, replicate 2.
For assay [5], the target named is ACE2_Fc (microarray spots) (UniProt Q9BYF1). The assay can be described thus: CDI SARS-CoV-2 protein microarray, sample [..]00347 1 ug/mL, positive-control spot ACE2_Fc_0.17 read by the anti-human IgG secondary, replicate 2.
The target is the same in assay [6]. The assay can be described thus: CDI SARS-CoV-2 protein microarray, sample [..]00347 1 ug/mL, positive-control spot ACE2_Fc_0.5 read by the anti-human IgG secondary, replicate 1.
Assay [7] shares this target. The assay can be described thus: CDI SARS-CoV-2 protein microarray, sample [..]00316 1 ug/mL, positive-control spot ACE2_Fc_0.17 read by the anti-human IgG secondary, replicate 2.
Assay [8] addresses Human IgG (microarray spot). The assay can be described thus: CDI SARS-CoV-2 protein microarray, sample [..]00347 1 ug/mL, positive-control spot Human IgG read by the anti-human IgG secondary, replicate 2.
Assay [9] deals with ACE2_Fc (microarray spots) (UniProt Q9BYF1). The assay can be described thus: CDI SARS-CoV-2 protein microarray, sample [..]00316 1 ug/mL, positive-control spot ACE2_Fc_0.17 read by the anti-human IgG secondary, replicate 1.
Assay [10] shares this target. The assay can be described thus: CDI SARS-CoV-2 protein microarray, sample [..]00347 1 ug/mL, positive-control spot ACE2_Fc_0.5 read by the anti-human IgG secondary, replicate 2.
Assay [11] has as its target Human IgG (microarray spot). The assay can be described thus: CDI SARS-CoV-2 protein microarray, sample [..]00316 1 ug/mL, positive-control spot Human IgG read by the anti-human IgG secondary, replicate 1.
In assay [12] the target is ACE2_Fc (microarray spots) (UniProt Q9BYF1). The assay can be described thus: CDI SARS-CoV-2 protein microarray, sample [..]00316 1 ug/mL, positive-control spot ACE2_Fc_0.5 read by the anti-human IgG secondary, replicate 2.
Assay [13] concerns the target Human IgG (microarray spot). The assay can be described thus: CDI SARS-CoV-2 protein microarray, sample [..]00347 1 ug/mL, positive-control spot Human IgG read by the anti-human IgG secondary, replicate 1.
For assay [14], the target named is S1 (SARS-CoV-2) (UniProt P0DTC2). The assay can be described thus: protein/peptide microarray, Anti-Hu IgG control alone, replicate 2, spot S1_0.17.
In assay [15] the target is ACE2_Fc (UniProt Q9BYF1). The assay can be described thus: protein/peptide microarray, Anti-Hu IgG control alone, replicate 2, spot ACE2_Fc_0.5.
Assay [16] deals with Human IgG (human). The assay can be described thus: protein/peptide microarray, Anti-Hu IgG control alone, replicate 1, spot Human IgG.
For assay [17], the target named is S1 (SARS-CoV-2) (UniProt P0DTC2). The assay can be described thus: protein/peptide microarray, Anti-Hu IgG control alone, replicate 2, spot S1_0.5.
Assay [18] addresses ACE2_Fc (UniProt Q9BYF1). The assay can be described thus: protein/peptide microarray, Anti-Hu IgG control alone, replicate 1, spot ACE2_Fc_0.5.
Assay [19] deals with Human IgG (human). The assay can be described thus: protein/peptide microarray, sample [..]00761 10 ug/mL, replicate 1, positive-control spot Human IgG (signal of the anti-human IgG detection).
Assay [20] deals with Human IgG (human). The assay can be described thus: protein/peptide microarray, sample [..]00761 10 ug/mL, replicate 2, positive-control spot Human IgG (signal of the anti-human IgG detection).
Assay [21] addresses ACE2_Fc (UniProt Q9BYF1). The assay can be described thus: protein/peptide microarray, sample [..]00761 10 ug/mL, replicate 1, positive-control spot ACE2_Fc_0.5 (signal of the anti-human IgG detection).
In assay [22] the target is ACE2_Fc (UniProt Q9BYF1). The assay can be described thus: protein/peptide microarray, sample [..]00761 10 ug/mL, replicate 2, positive-control spot ACE2_Fc_0.5 (signal of the anti-human IgG detection).
Assay [23] concerns the target Human IgG (human). The assay can be described thus: protein/peptide microarray, Anti-Hu IgG control alone, replicate 2, spot Human IgG.
The target of assay [24] is ACE2_Fc (UniProt Q9BYF1). The assay can be described thus: protein/peptide microarray, Anti-Hu IgG control alone, replicate 2, spot ACE2_Fc_0.17.
Assay [25] deals with S1 (SARS-CoV-2) (UniProt P0DTC2). The assay can be described thus: protein/peptide microarray, Anti-Hu IgG control alone, replicate 1, spot S1_0.17.
For assay [26] the target is unchanged. The assay can be described thus: protein/peptide microarray, Anti-Hu IgG control alone, replicate 1, spot S1_0.5.
In assay [27] the target is ACE2_Fc (UniProt Q9BYF1). The assay can be described thus: protein/peptide microarray, sample [..]00761 10 ug/mL, replicate 1, positive-control spot ACE2_Fc_0.17 (signal of the anti-human IgG detection).
Assay [28] has as its target ACE2_Fc (UniProt Q9BYF1). The assay can be described thus: protein/peptide microarray, Anti-Hu IgG control alone, replicate 1, spot ACE2_Fc_0.17.
The target in assay [29] is ACE2_Fc (UniProt Q9BYF1). The assay can be described thus: protein/peptide microarray, sample [..]00761 10 ug/mL, replicate 2, positive-control spot ACE2_Fc_0.17 (signal of the anti-human IgG detection).

Consider REGN10933 (antibody), for which, in assay [1], the IC50, SARS-CoV-2 pseudovirus neutralization assay was 0.0841 µg/mL.

Regarding secondary antibody (Anti-Human IgG), the F532 in [2] was determined as 192; in assay [3], 234; in assay [4] it was 164; in [5], 138; in assay [6] it was 219; in assay [7], 151. Further, the F532 in assay [8] worked out at 179; in assay [9], 198; in [10], 160; in [11], 212; in [12] it was 167; in assay [13], 197. In addition, the F635 was found to be 65500 in assay [2]; 65500 in [3]; 65500 in [4]; 65500 in assay [5]; 65500 in [6]; 60200 in assay [7]. In addition, the F635 in assay [8], in assay [9], in assay [10], in [11], in [12] and in assay [13] was 65500 in each case. For the same substance, the Z-Score in assay [2] was 8.93; in assay [3] it was 7.52; in assay [4] it was 7.97; in assay [5] it was 8.89; in assay [6] it was 8.93; in [7], 7.32. For the same substance, the Z-Score came out at 8.89 in [8]; 7.52 in assay [9]; 8.89 in [10]; 7.52 in assay [11]; 7.96 in assay [12]; 8.93 in assay [13].

On to Anti-Hu IgG (Control) (antibody), for which the F635 was 753 with S1 (SARS-CoV-2) [14]; 65500 in the assay with ACE2_Fc [15]; 65500 in the assay with Human IgG (human) [16]; 1230 in the assay with S1 (SARS-CoV-2) [17]; 65500 with ACE2_Fc [18]; 65500 in the assay with Human IgG (human) [19]. Moreover, the F635 in the assay with Human IgG (human) [20] stood at 65500; in the assay with ACE2_Fc [21] it was 65500; with ACE2_Fc [22] it was 65500; with Human IgG (human) [23] it was 65500; with ACE2_Fc [24], 65500; with S1 (SARS-CoV-2) [25], 1410. In addition, the F635 was 1560 with S1 (SARS-CoV-2) [26], 65500 in the assay with ACE2_Fc [27], 65500 in the assay with ACE2_Fc [28] and 65500 in the assay with ACE2_Fc [29]. The Z-Score in the assay with S1 (SARS-CoV-2) [14] is -0.01; with ACE2_Fc [15], 9.27; in the assay with Human IgG (human) [16], 9.27; with S1 (SARS-CoV-2) [17] it was 0.06; with ACE2_Fc [18] it was 9.27; in the assay with Human IgG (human) [19] it was 7.28. Moreover, the Z-Score in the assay with Human IgG (human) [20] was 7.67; in the assay with ACE2_Fc [21], 7.28; with ACE2_Fc [22] it was 7.67; with Human IgG (human) [23], 9.27; in the assay with ACE2_Fc [24], 9.27; with S1 (SARS-CoV-2) [25], 0.08. For the same substance, the Z-Score stood at 0.1 with S1 (SARS-CoV-2) [26], 7.28 with ACE2_Fc [27], 9.27 with ACE2_Fc [28] and 7.67 with ACE2_Fc [29].

The record behind these values is patent US20230331825A1.
